Results as given in US20140179594A1, “STREPTOCOCCUS BACTERIOPHAGE LYSINS FOR TREATMENT OF GRAM POSITIVE BACTERIA IN COMPANION ANIMALS AND LIVESTOCK” (priority 2011, published 2014).

Assays:
Assay in all cases: ΔPlySs1 OD600 lysis, 1 hr
Type in all cases: cell-based
S. dysgalactiae GGS = system: S. dysgalactiae GGS
S. uberis 27598 = system: S. uberis 27598
S. pyogenes A486 = system: S. pyogenes A486
S. suis ST6 = system: S. suis ST6
Protocol: (§1) Given the above experiments, the following optimal buffering conditions were employed for all further in vitro experiments with ΔPlySs1: 20 mM phosphate buffer, pH=7.8, 2 mM EDTA. A range of lysin concentrations, from 6.5-130 μg/ml, were introduced to live S. suis cells in this buffer. Three strains were considered particularly relevant: 7711, the serotype 7 strain that encodes PlySs1; 5735, the serotype 2 reference strain; and 7997, a highly virulent serotype 9 strain. In terms of bacterial viability, only the highest PlySs1-concentration (130 μg/ml) led to a >90% decrease in CFUs for 7711, S735, and 7997 after 1 hr treatment (TABLE 2). The lysin was also tested against actively-dividing cells in broth culture (strain 7711) (FIG. 20).
(§2) ΔPlySs1 was further tested against a panel of 19 other S. suis strains of diverse serotypes, as well as other species of Gram-positive bacteria. The same lysin concentrations were used as above. For each dosage, the observed lysis values after 1 hr are listed in TABLE 3 and TABLE 4, and the information is summarized graphically in FIG. 21.

S. suis ST9 = system: S. suis ST9
Protocol: as §1, §2

S. suis 6388 (ST1) = system: S. suis 6388 (ST1)
Protocol: as §1, §2

S. suis 7197 (ST7) = system: S. suis 7197 (ST7)
Protocol: as §1, §2

S. suis ST1 = system: S. suis ST1
Protocol: as §1, §2

S. suis ST2 = system: S. suis ST2
Protocol: as §1, §2

S. suis 10 (ST2) = system: S. suis 10 (ST2)
Protocol: as §1, §2

S. suis ST13 = system: S. suis ST13
Protocol: as §1, §2

S. suis ST3 = system: S. suis ST3
Protocol: as §1, §2

S. pyogenes D471 = system: S. pyogenes D471
S. simulans TNK3 = system: S. simulans TNK3
S. agalactiae 090R = system: S. agalactiae 090R
S. rattus BHT = system: S. rattus BHT
S. agalactiae type II = system: S. agalactiae type II
S. salivarius 9222 = system: S. salivarius 9222
S. epidermidis HN1292 = system: S. epidermidis HN1292

B1: ΔPlySs1: truncated PlySs1 lysin with N-terminal enzymatic and central binding domains, N-terminal 254 amino acids, SEQ ID NO:2 (protein, listed as Streptococcus suis)
chain: MTINLETSIRWMSDRVGKVSYSMDYRNGPNSYDCSSAVYYALMAGGAISAGWAVNTEYMHDWLIRNGYVLVAENKPFNAQRHDVCILGKRGYSSGAGGHVVIFVDNVNVIHCNYARNGISIDNYNQVHRGMYYYLYRPANQPSISNKSLDQLVKETLAGVHGNGDTRKASLGSQYEAVMAVINGKASASEKSDEELAREVLAGKHGAGEDRKRSLGPRYEPVQAKVNELLKAKEKPSETAKNEPQTVQFKEDGDL
1-hour treated/untreated OD600-ratio (S. dysgalactiae GGS; 6.5 μg/ml): 0.30
1-hour treated/untreated OD600-ratio (S. dysgalactiae GGS; 13 μg/ml): 0.27
1-hour treated/untreated OD600-ratio (S. dysgalactiae GGS; 30 μg/ml): 0.15
1-hour treated/untreated OD600-ratio (S. dysgalactiae GGS; 65 μg/ml): 0.11
1-hour treated/untreated OD600-ratio (S. dysgalactiae GGS; 130 μg/ml): 0.14
1-hour treated/untreated OD600-ratio (S. uberis 27598; 6.5 μg/ml): 0.42
1-hour treated/untreated OD600-ratio (S. uberis 27598; 13 μg/ml): 0.23
1-hour treated/untreated OD600-ratio (S. uberis 27598; 30 μg/ml): 0.16
1-hour treated/untreated OD600-ratio (S. uberis 27598; 65 μg/ml): 0.14
1-hour treated/untreated OD600-ratio (S. uberis 27598; 130 μg/ml): 0.12
1-hour treated/untreated OD600-ratio (S. pyogenes A486; 6.5 μg/ml): 0.12
1-hour treated/untreated OD600-ratio (S. pyogenes A486; 13 μg/ml): 0.13
1-hour treated/untreated OD600-ratio (S. pyogenes A486; 30 μg/ml): 0.13
1-hour treated/untreated OD600-ratio (S. pyogenes A486; 65 μg/ml): 0.11
1-hour treated/untreated OD600-ratio (S. pyogenes A486; 130 μg/ml): 0.10
1-hour treated/untreated OD600-ratio (S. suis ST6; 6.5 μg/ml): 0.76
1-hour treated/untreated OD600-ratio (S. suis ST6; 13 μg/ml): 0.56
1-hour treated/untreated OD600-ratio (S. suis ST6; 30 μg/ml): 0.40
1-hour treated/untreated OD600-ratio (S. suis ST6; 65 μg/ml): 0.21
1-hour treated/untreated OD600-ratio (S. suis ST6; 130 μg/ml): 0.06
1-hour treated/untreated OD600-ratio (S. suis ST9; 6.5 μg/ml): 0.50
1-hour treated/untreated OD600-ratio (S. suis ST9; 13 μg/ml): 0.30
1-hour treated/untreated OD600-ratio (S. suis ST9; 30 μg/ml): 0.23
1-hour treated/untreated OD600-ratio (S. suis ST9; 65 μg/ml): 0.13
1-hour treated/untreated OD600-ratio (S. suis ST9; 130 μg/ml): 0.05
1-hour treated/untreated OD600-ratio (S. suis 6388 (ST1); 6.5 μg/ml): 0.15
1-hour treated/untreated OD600-ratio (S. suis 6388 (ST1); 13 μg/ml): 0.13
1-hour treated/untreated OD600-ratio (S. suis 6388 (ST1); 30 μg/ml): 0.06
1-hour treated/untreated OD600-ratio (S. suis 6388 (ST1); 65 μg/ml): 0.03
1-hour treated/untreated OD600-ratio (S. suis 6388 (ST1); 130 μg/ml): 0.02
1-hour treated/untreated OD600-ratio (S. suis 7197 (ST7); 6.5 μg/ml): 0.64
1-hour treated/untreated OD600-ratio (S. suis 7197 (ST7); 13 μg/ml): 0.49
1-hour treated/untreated OD600-ratio (S. suis 7197 (ST7); 30 μg/ml): 0.39
1-hour treated/untreated OD600-ratio (S. suis 7197 (ST7); 65 μg/ml): 0.16
1-hour treated/untreated OD600-ratio (S. suis 7197 (ST7); 130 μg/ml): 0.07
1-hour treated/untreated OD600-ratio (S. suis ST1; 6.5 μg/ml): 0.80
1-hour treated/untreated OD600-ratio (S. suis ST1; 13 μg/ml): 0.34
1-hour treated/untreated OD600-ratio (S. suis ST1; 30 μg/ml): 0.36
1-hour treated/untreated OD600-ratio (S. suis ST1; 65 μg/ml): 0.19
1-hour treated/untreated OD600-ratio (S. suis ST1; 130 μg/ml): 0.06
1-hour treated/untreated OD600-ratio (S. suis ST2; 6.5 μg/ml): 0.79
1-hour treated/untreated OD600-ratio (S. suis ST2; 13 μg/ml): 0.70
1-hour treated/untreated OD600-ratio (S. suis ST2; 30 μg/ml): 0.49
1-hour treated/untreated OD600-ratio (S. suis ST2; 65 μg/ml): 0.34
1-hour treated/untreated OD600-ratio (S. suis ST2; 130 μg/ml): 0.17
1-hour treated/untreated OD600-ratio (S. suis 10 (ST2); 6.5 μg/ml): 0.29
1-hour treated/untreated OD600-ratio (S. suis 10 (ST2); 13 μg/ml): 0.18
1-hour treated/untreated OD600-ratio (S. suis 10 (ST2); 30 μg/ml): 0.10
1-hour treated/untreated OD600-ratio (S. suis 10 (ST2); 65 μg/ml): 0.05
1-hour treated/untreated OD600-ratio (S. suis 10 (ST2); 130 μg/ml): 0.02
1-hour treated/untreated OD600-ratio (S. suis ST13; 6.5 μg/ml): 0.32
1-hour treated/untreated OD600-ratio (S. suis ST13; 13 μg/ml): 0.17
1-hour treated/untreated OD600-ratio (S. suis ST13; 30 μg/ml): 0.04
1-hour treated/untreated OD600-ratio (S. suis ST13; 65 μg/ml): 0.02
1-hour treated/untreated OD600-ratio (S. suis ST13; 130 μg/ml): 0.02
1-hour treated/untreated OD600-ratio (S. suis ST3; 6.5 μg/ml): 0.81
1-hour treated/untreated OD600-ratio (S. suis ST3; 13 μg/ml): 0.71
1-hour treated/untreated OD600-ratio (S. suis ST3; 30 μg/ml): 0.48
1-hour treated/untreated OD600-ratio (S. suis ST3; 65 μg/ml): 0.32
1-hour treated/untreated OD600-ratio (S. suis ST3; 130 μg/ml): 0.16
1-hour treated/untreated OD600-ratio (S. pyogenes D471; 6.5 μg/ml): 0.39
1-hour treated/untreated OD600-ratio (S. pyogenes D471; 13 μg/ml): 0.27
1-hour treated/untreated OD600-ratio (S. pyogenes D471; 30 μg/ml): 0.17
1-hour treated/untreated OD600-ratio (S. pyogenes D471; 65 μg/ml): 0.13
1-hour treated/untreated OD600-ratio (S. pyogenes D471; 130 μg/ml): 0.09
1-hour treated/untreated OD600-ratio (S. simulans TNK3; 6.5 μg/ml): 0.96
1-hour treated/untreated OD600-ratio (S. simulans TNK3; 13 μg/ml): 1.00
1-hour treated/untreated OD600-ratio (S. simulans TNK3; 30 μg/ml): 1.00
1-hour treated/untreated OD600-ratio (S. simulans TNK3; 65 μg/ml): 1.00
1-hour treated/untreated OD600-ratio (S. simulans TNK3; 130 μg/ml): 0.96
1-hour treated/untreated OD600-ratio (S. agalactiae 090R; 6.5 μg/ml): 0.97
1-hour treated/untreated OD600-ratio (S. agalactiae 090R; 13 μg/ml): 0.99
1-hour treated/untreated OD600-ratio (S. agalactiae 090R; 30 μg/ml): 0.97
1-hour treated/untreated OD600-ratio (S. agalactiae 090R; 65 μg/ml): 0.98
1-hour treated/untreated OD600-ratio (S. agalactiae 090R; 130 μg/ml): 0.93
1-hour treated/untreated OD600-ratio (S. rattus BHT; 6.5 μg/ml): 0.82
1-hour treated/untreated OD600-ratio (S. rattus BHT; 13 μg/ml): 0.84
1-hour treated/untreated OD600-ratio (S. rattus BHT; 30 μg/ml): 0.82
1-hour treated/untreated OD600-ratio (S. rattus BHT; 65 μg/ml): 0.83
1-hour treated/untreated OD600-ratio (S. rattus BHT; 130 μg/ml): 0.79
1-hour treated/untreated OD600-ratio (S. agalactiae type II; 6.5 μg/ml): 0.61
1-hour treated/untreated OD600-ratio (S. agalactiae type II; 13 μg/ml): 0.21
1-hour treated/untreated OD600-ratio (S. agalactiae type II; 30 μg/ml): 0.11
1-hour treated/untreated OD600-ratio (S. agalactiae type II; 65 μg/ml): 0.08
1-hour treated/untreated OD600-ratio (S. agalactiae type II; 130 μg/ml): 0.04
1-hour treated/untreated OD600-ratio (S. salivarius 9222; 6.5 μg/ml): 0.80
1-hour treated/untreated OD600-ratio (S. salivarius 9222; 13 μg/ml): 0.76
1-hour treated/untreated OD600-ratio (S. salivarius 9222; 30 μg/ml): 0.56
1-hour treated/untreated OD600-ratio (S. salivarius 9222; 65 μg/ml): 0.53
1-hour treated/untreated OD600-ratio (S. salivarius 9222; 130 μg/ml): 0.37
1-hour treated/untreated OD600-ratio (S. epidermidis HN1292; 6.5 μg/ml): 1.04
1-hour treated/untreated OD600-ratio (S. epidermidis HN1292; 13 μg/ml): 1.00
1-hour treated/untreated OD600-ratio (S. epidermidis HN1292; 30 μg/ml): 0.96
1-hour treated/untreated OD600-ratio (S. epidermidis HN1292; 65 μg/ml): 0.94
1-hour treated/untreated OD600-ratio (S. epidermidis HN1292; 130 μg/ml): 0.87
